Earlier results on 2 substances are cited in PMC10775509.

The target in data set [1] is TREM-1 (Mus musculus) (UniProt Q9JKE2).
For data set [2] the target is unchanged. This is another data set of the same source.

Where two headings read alike, the source gives them in different places.

UniProt Q9JKE2, sequence (Q9JKE2 21-230): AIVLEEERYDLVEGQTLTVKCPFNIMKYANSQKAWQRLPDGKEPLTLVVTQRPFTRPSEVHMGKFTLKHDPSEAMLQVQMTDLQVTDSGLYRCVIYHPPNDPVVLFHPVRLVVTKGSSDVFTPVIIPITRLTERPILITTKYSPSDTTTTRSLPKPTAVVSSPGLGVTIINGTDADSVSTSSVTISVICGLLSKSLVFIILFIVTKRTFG

Turning to CIRP (from UniProt P60824), in the data set with TREM-1 (Mus musculus) [1], the Kd is 0.117 µM.

Consider HMGB1 (from UniProt P63158), for which, in the data set with TREM-1 (Mus musculus) [2], the dissociation constant (Kd) was 35.4 µM.

Usually Kd stands for the concentration at which binding is half-saturated.
